Measurements: PMC11849630

Target: eGFP-tagged htau 441 ΔK280 mutant (eGFP-tau ΔK280) (human) (UniProt P10636)
Experiment: fluorescence correlation spectroscopy (FCS/FCCS) in live cells; HEK293T cells overexpressing fluorescent-protein-fused tau; diffusion coefficient fitted (3D normal diffusion), mass by Stokes-Einstein, calibrated with eGFP-mCherry fusion; only tau not bound to microtubules

stoichiometry N: 19
Substance: eGFP-tagged htau 441 ΔK280 mutant (eGFP-tau ΔK280) (from UniProt P10636-8 1-441) (natural protein)
